Source: PMC2684811 (Analytical biochemistry, 2009)

Biological target: acetylcholine-binding protein (AChBP) from Lymnaea stagnalis, carboxy-terminal hexahistidine-tagged (Lymnaea stagnalis, UniProt P58154 20-229)
Experiment: SPR

Sequence of acetylcholine-binding protein (AChBP) from Lymnaea stagnalis, carboxy-terminal hexahistidine-tagged (P58154 20-229): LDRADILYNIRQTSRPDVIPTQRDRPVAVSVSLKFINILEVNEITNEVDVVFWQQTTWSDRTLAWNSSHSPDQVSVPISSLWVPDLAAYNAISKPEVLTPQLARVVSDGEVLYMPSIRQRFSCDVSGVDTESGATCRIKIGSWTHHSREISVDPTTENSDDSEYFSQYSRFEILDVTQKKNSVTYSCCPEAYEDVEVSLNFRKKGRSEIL

B1: α-bungarotoxin (natural protein)
chain: IVCHTTATSPISAVTCPPGENLCYRKMWCDAFCSSRGKVVELGCAATCPSKKPYEEVTCCSTDKCNPHPKQRPG
B1: binds.
